Test results published in patent US20080199481A1 (AstraZeneca / MedImmune, published 2008).
Residue numbers refer to the chain shown, from its start. Where “and” joins values, the source holds several entries; their conditions need not be identical. Equal entries are not always repeated.

T1: Glycosylated human CXCL13 (MEL cell derived) (human, UniProt O43927 23-104, glycosylated (site not stated))
T1 sequence: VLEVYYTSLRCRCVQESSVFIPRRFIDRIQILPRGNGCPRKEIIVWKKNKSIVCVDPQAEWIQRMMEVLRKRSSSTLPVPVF

T2: CXCL8 (IL-8) (UniProt P10145 28-99)
T2 construct: also called CXCL8 (R&D Systems)
T2 sequence (looked up): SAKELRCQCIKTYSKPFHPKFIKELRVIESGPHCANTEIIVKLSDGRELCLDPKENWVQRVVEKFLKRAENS

T3: CXCL10 (IP10) (UniProt P02778 22-98)
T3 construct: also called CXCL10 (R&D Systems)
T3 sequence (looked up): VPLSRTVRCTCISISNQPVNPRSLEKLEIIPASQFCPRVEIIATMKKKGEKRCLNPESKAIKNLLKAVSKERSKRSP

T4: CXCL6 (GCP-2) (UniProt P80162 38-114, limits assumed)
T4 construct: also called CXCL6 (R&D Systems)
T4 sequence (looked up): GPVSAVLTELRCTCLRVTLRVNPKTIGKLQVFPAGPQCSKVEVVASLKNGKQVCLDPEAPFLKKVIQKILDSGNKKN

T5: CXCL5 (ENA-78) (UniProt P42830 37-114, limits assumed)
T5 construct: also called CXCL5 (R&D Systems)
T5 sequence (looked up): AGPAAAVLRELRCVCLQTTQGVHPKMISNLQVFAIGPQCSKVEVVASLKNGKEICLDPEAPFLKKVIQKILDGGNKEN

T6: CXCL3 (GROγ) (UniProt P19876 35-107)
T6 construct: also called CXCL3 (R&D Systems)
T6 sequence (looked up): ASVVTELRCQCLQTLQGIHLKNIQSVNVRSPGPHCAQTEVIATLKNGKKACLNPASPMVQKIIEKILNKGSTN

T7: Biotinylated human CXCL13 (Almac) (human, UniProt O43927 23-109, biotin at the most C terminal lysine residue)
T7 construct: also called human CXCL13 biotinylated near the C-terminus (Almac custom synthesis)
T7 sequence: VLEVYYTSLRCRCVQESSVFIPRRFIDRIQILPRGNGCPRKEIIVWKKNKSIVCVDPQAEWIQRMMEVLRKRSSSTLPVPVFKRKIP

B1: Antibody 1 (germlined IgG1) (antibody, V domains shown)
VH: EVQLLESGGGLVQPGGSLRLSCAASGFTFGNSWMSWVRQAPGKGLEWVSAISGSGGSTYYADSVKGRFTISRDNSKNTLYLQMNSLRAEDTAVYYCTRDLPGIAVAGYWGQGTLVTVSS
VL: DTQMTQSPSTLSASVGDRVTITCRASEGIYHWLAWYQQKPGKAPKLLIYKASSLASGVPSRFSGSGSGTEFTLTISSLQPDDFATYYCQQYSNYPLTFGGGTKLEIKR
notes: also called germlined Antibody 1 IgG1; antibody 1 (IgG1)
B2: Antibody 1 (germlined IgG1) Fab (Fab, V domains shown)
VH: B1 VH
VL: B1 VL
notes: also called Size Exclusion Chromatography monomerized Fab fragments of Antibody 1
B3: Human CXCL13 (MEL cell derived), unglycosylated (ligand)
chain: T1 sequence
notes: also called hCXCL13; Unglycosylated hCXCL13
B4: Cynomolgus CXCL13 (MEL cell derived) (ligand)
chain: T1 sequence with S8H, L32S, I52V, M65I, V68M, R72K, L77P
modifications: glycosylated (site not stated)
notes: also called Cyno CXCL13; glycosylated cyno CXCL13

Legend:
[1] = target: B4; assay: SPR (BIAcore 2000), IgG amine-coupled to a CM3 chip, cyno CXCL13 0.10-0.60 nM flowed; 1:1 Langmuir (n=1, initial data)
Method: (§1) Antibodies were diluted to 1.0 μg mL-1 in 10 mM acetate buffer pH 4.5. Standard amine linkage chemistry (using amine coupling kit BR-1000-50) was employed to create blank (Fc 1) and 500 RU surfaces of IgG on a CM3 chip (BIAcore, BR-1005-41, lot: 1160100 expiry April '07). The wash solution employed was Glycine pH 2.0.
(§2) Flow of human and cynomolgus CXCL13 over chip surfaces. A dilution series of each CXCL13 (0.10, 0.20, 0.30, 0.40, 0.50 and 0.60 nM) was constructed in HBS-EP buffer and flowed at 30 μL min-1 over all flow cells (association time of 4 minutes, dissociation for 10 minutes and regeneration with two 20 μL pulses of 10 mM Glycine pH 2.0). Blank injections were made with the same buffer. All solutions were prepared and stored in polypropylene.

[2] = target: B3; assay: cell-based or functional assay
[3] = target: B3; assay: SPR (BIAcore 2000), IgG amine-coupled to a CM3 chip, human CXCL13 0.10-0.60 nM flowed; 1:1 Langmuir (n=1, initial data)
Method: as §1, §2

[4] = target: B4; assay: SPR (BIAcore 2000), IgG captured on Protein G', cyno CXCL13 flowed; average of the 2 experiments of Table 11
Source text: (§3) Standard amine linkage chemistry was employed to create blank and 265 RU surfaces of Protein G′ (Sigma P4689) on Flow cells (Fc) 1 and 2, respectively, of a normalized CM5 chip (BIAcore, BR-1000-14). This Fc 2 Protein G′ surface was used to capture 240-385 RUs Antibody 1 (germlined IgG₁).

[5] = target: T1, Glycosylated human CXCL13 (MEL cell …); assay: cell-based or functional assay
[6] = target: B3; assay: cell-based or functional assay; remark: listed apart in the source
[7] = target: B4; assay: cell-based or functional assay
[8] = target: B3; assay: cell-based or functional assay; remark: listed apart in the source
[9] = target: B3; assay: SPR (BIAcore 2000), IgG captured on Protein G', human CXCL13 flowed; average of the 3 experiments of Table 10a
Source text: as §3

[10] = target: B3; assay: SPR (BIAcore 2000), IgG captured on Protein G', human CXCL13 0.25-20 nM flowed; 1:1 Langmuir with mass transport limitation
Source text: as §3

[11] = target: B4; assay: SPR (BIAcore 2000), IgG captured on Protein G', cyno CXCL13 0.125-40 nM flowed; 1:1 Langmuir with mass transport limitation
Source text: as §3

CXCL8 (IL-8) = target: T2, CXCL8 (IL-8); assay: CXCL13 FLISA competition assay (FMAT, biotinylated human CXCL13 on streptavidin beads)
Method: (§4) Samples and reagents were diluted in Assay Buffer (Phosphate Buffered Saline with 0.1% BSA, 0.1% Tween-20 and 0.01% sodium azide). 0.25 nM biotinylated CXCL13 (Almac) was pre-incubated with 0.004% w/v 6-8 μm streptavidin coated polystyrene particles (Spherotec SVP-60-5) for 1 hour at room temperature. The beads were then centrifuged at 3000 rpm for 5 minutes, the supernatant discarded and the pellet resuspended in the original volume of assay buffer to give a 0.004% w/v bead/biotinylated humanCXCL13 mix. 10 μL competitor, assay buffer (total binding control) or excess humanCXCL13 (Non specific binding (NSB) control) was added to a 384 well clear-bottomed non-binding surface assay plate (Costar 3655). 10 μL 5 nM Goat anti-human (H+L) Alexa Fluor®-647 (Invitrogen A21445), 10 μL 0.31 nM Antibody 1 (germlined IgG) and 20 μL Bead/biotinylated CXCL13 mix were then added and the plates incubated for 4 hours at room temperature. FL1 signal was read on the Applied Biosystems Cellular Detection System 8200. Data was analysed using the Wang Goldman algorithm with gating of size 3-12, colour ratio <0.4, minimum count 20.
(§5) Specificity of the germlined Antibody 1 IgG₁ for human CXCL13 (MEL cell derived) over other members of the CXC family of chemokines was determined using the CXCL13 FLISA (Fluorescence linked immunosorbent assay). In this assay the chemokines CXCL3 (R&D Systems), CXCL5 (R&D Systems), CXCL6 (R&D Systems), CXCL8 (R&D Systems), CXCL10 (R&D Systems) and CXCL12 (Peprotech) were tested for competition with biotinylated human CXCL13 (Almac) immobilised on a streptavidin bead for binding to germlined Antibody 1 IgG₁. The biotinylated human CXCL13 antibody-binding interaction was detected with a fluorescently tagged anti-human IgG antibody using Fluorescence Microvolume assay Technology (refer to “Assay Materials and Methods” for details). Standard chemokine names (Zlotnik and Yoshie, 2000) are given together with their most commonly used synonym.

CXCL12 (SDF-1α) = target: T8, CXCL12 (SDF-1α) (UniProt P48061-2 22-89); assay: as above
T8 construct: also called CXCL12 (Peprotech)
Method: as §4, §5

CXCL10 (IP10) = target: T3, CXCL10 (IP10); assay: as above
Method: as §4, §5

CXCL6 (GCP-2) = target: T4, CXCL6 (GCP-2); assay: as above
Method: as §4, §5

CXCL5 (ENA-78) = target: T5, CXCL5 (ENA-78); assay: as above
Method: as §4, §5

CXCL3 (GROγ) = target: T6, CXCL3 (GROγ); assay: as above
Method: as §4, §5

[12] = target: B3; assay: cell-based or functional assay; remark: listed apart in the source
[13] = target: B4; assay: cell-based or functional assay
[14] = target: T7, Biotinylated human CXCL13 (Almac); assay: SPR (BIAcore 2000), 28 RU biotinylated human CXCL13 captured on streptavidin, Fab 0.065-2.105 nM flowed
Source text: Standard amine linkage chemistry was employed to create blank (Fc 1) and 228 and 303 RU surfaces of Streptavidin (Perbio/Pierce 21125) on Flow cells (Fc) 2 and 3, respectively, of a normalized CM5 chip (BIAcore, BR-1000-14). This Fc 3 streptavidin surface was used to capture 28 RUs human CXCL13 biotinylated near the C-terminus (Almac custom synthesis).

[15] = target: B1; assay: CXCL13 FLISA competition: soluble chemokine titrated against 0.31 nM Antibody 1 germlined IgG1 binding to bead-bound biotinylated human CXCL13 (n = 1)
Method: as §4, with “10 μL 5 nM Goat anti-human (H+L) Alexa Fluor®-647 (Invitrogen A21445), 10 μL 0.31 nM Antibody 1 (germlined IgG) and 20 μL Bead/biotinylated CXCL13 mix were then added and the plates incubated for 4 hours at room temperature.” left out
(§6) Specificity of the germlined Antibody 1 IgG₁ for human CXCL13 (MEL cell derived) over other members of the CXC family of chemokines was determined using the CXCL13 FLISA (Fluorescence linked immunosorbent assay). […] The biotinylated human CXCL13 antibody-binding interaction was detected with a fluorescently tagged anti-human IgG antibody using Fluorescence Microvolume assay Technology (refer to “Assay Materials and Methods” for details). […]

[16] = target: B1; assay: CXCL13 FLISA competition: soluble chemokine titrated against Antibody 1 germlined IgG1 binding to bead-bound biotinylated human CXCL13 (n = 1)
Method: as §4, with “10 μL 5 nM Goat anti-human (H+L) Alexa Fluor®-647 (Invitrogen A21445), 10 μL 0.31 nM Antibody 1 (germlined IgG) and 20 μL Bead/biotinylated CXCL13 mix were then added and the plates incubated for 4 hours at room temperature.” left out
as §6

Binder: B1
Kd [1]: 0.285 nM
koff [1]: 0.00104 s⁻¹
kon [1]: 3.63e+06 M⁻¹ s⁻¹
IC50, CXCL13 mediated CHO Gqi5 hCXCR5 c4.4 Ca2+ release assay (FLIPR) [2]: 10.4 nM
Kd [3]: 0.259 nM
koff [3]: 0.000524 s⁻¹
kon [3]: 2.02e+06 M⁻¹ s⁻¹
Kd [4]: 0.0311 nM
koff [4]: 0.000625 s⁻¹
kon [4]: 2.01e+07 M⁻¹ s⁻¹
IC50, B300.19 hCXCR5 chemotaxis assay (ED80 concentration of CXCL13) [5]: 3.94 nM
IC50, B300.19 hCXCR5 chemotaxis assay (ED80 concentration of CXCL13) [6]: 6.22 nM
IC50, B300.19 hCXCR5 chemotaxis assay (ED80 concentration of CXCL13) [7]: 4.53 nM
IC50, human tonsillar B cell chemotaxis assay (100 nM human non-glycosylated CXCL13, ED80; n=4) [8]: 9.59 nM
Kd [9]: 0.0414 nM
koff [9]: 0.000712 s⁻¹
kon [9]: 1.77e+07 M⁻¹ s⁻¹
Kd [10]: 0.0322 nM and 0.0504 nM and 0.0417 nM
koff [10]: 0.000684 s⁻¹ and 0.000715 s⁻¹ and 0.000736 s⁻¹
kon [10]: 2.13e+07 M⁻¹ s⁻¹ and 1.42e+07 M⁻¹ s⁻¹ and 1.76e+07 M⁻¹ s⁻¹
Kd [11]: 0.033 nM and 0.0291 nM
koff [11]: 0.00065 s⁻¹ and 0.000599 s⁻¹
kon [11]: 1.97e+07 M⁻¹ s⁻¹ and 2.05e+07 M⁻¹ s⁻¹
binding result (CXCL8 (IL-8)): no binding (tested: 1 µM)
binding result (CXCL12 (SDF-1α)): no binding (tested: 1 µM)
binding result (CXCL10 (IP10)): no binding (tested: 1 µM)
binding result (CXCL6 (GCP-2)): no binding (tested: 1 µM)
binding result (CXCL5 (ENA-78)): no binding (tested: 1 µM)
binding result (CXCL3 (GROγ)): no binding (tested: 1 µM)
IC50, LANCE CXCL13 cAMP assay (CHO Gqi5 hCXCR5 cells) [12]: 1.6 nM
IC50, LANCE CXCL13 cAMP assay (CHO Gqi5 hCXCR5 cells) [13]: 0.3 nM

Binder: B2
Kd [14]: 0.185 nM
koff [14]: 0.00166 s⁻¹
kon [14]: 8.98e+06 M⁻¹ s⁻¹

Binder: B3
IC50 [15]: 0.2 nM

Binder: B4
IC50 [16]: 0.8 nM
